Laboratory results as given in US20200199204A1 (UNITED STATES OF AMERICA AS REPRESENTED BY THE SECRETARY …, published 2020).

Legend:
Test in all cases: cell-based or functional assay
[1] = molecular target: HIV-1 Env of UG037.8 (HIV-1)
[2] = molecular target: HIV-1 Env of 3016.V5.c36 (HIV-1)
[3] = molecular target: HIV-1 Env of Q769.d22 (HIV-1)
[4] = molecular target: HIV-1 Env of 6535.3 (HIV-1)
[5] = molecular target: HIV-1 Env of ZM197.7 (HIV-1)
[6] = molecular target: HIV-1 Env of TRO.11 (HIV-1)
[7] = molecular target: HIV-1 Env of 96ZM651.02 (HIV-1)
[8] = molecular target: HIV-1 Env of ZM109.4 (HIV-1)
[9] = molecular target: HIV-1 Env of PVO.04 (HIV-1)
[10] = molecular target: HIV-1 Env of RW020.2 (HIV-1)
[11] = molecular target: HIV-1 Env of AC10.29 (HIV-1)
[12] = molecular target: HIV-1 Env of C1080.c3 (HIV-1)
[13] = molecular target: HIV-1 Env of KER2008.12 (HIV-1)
[14] = molecular target: HIV-1 Env of ZM135.10a (HIV-1)
[15] = molecular target: HIV-1 Env of BG505.w6m (HIV-1)
[16] = molecular target: HIV-1 Env of MB539.2B7 (HIV-1)
[17] = molecular target: HIV-1 Env of Q259.d2.17 (HIV-1)
[18] = molecular target: HIV-1 Env of CAAN.A2 (HIV-1)
[19] = molecular target: HIV-1 Env of REJO.67 (HIV-1)
[20] = molecular target: HIV-1 Env of CAP256.PI (HIV-1)
[21] = molecular target: HIV-1 Env of WITO.33 (HIV-1)
[22] = molecular target: HIV-1 Env of SC422.8 (HIV-1)
[23] = molecular target: HIV-1 Env of DU172.17 (HIV-1)
[24] = molecular target: HIV-1 Env of Q461.e2 (HIV-1)
[25] = molecular target: HIV-1 Env of TRJO.58 (HIV-1)
[26] = molecular target: HIV-1 Env of CAP45.G3 (HIV-1)
[27] = molecular target: HIV-1 Env of ZM249.1 (HIV-1)
[28] = molecular target: HIV-1 Env of THRO.18 (HIV-1)
[29] = molecular target: HIV-1 Env of CAP210.E8 (HIV-1)
[30] = molecular target: HIV-1 Env of CAP256.SU (HIV-1)
[31] = molecular target: HIV-1 Env of ZM233.6 (HIV-1)
[32] = molecular target: HIV-1 Env of 0260.v5.c36 (HIV-1)
[33] = molecular target: HIV-1 Env of CM244.ec1 (HIV-1)
[34] = molecular target: HIV-1 Env of ZM214.15 (HIV-1)
[35] = molecular target: HIV-1 Env of MB201 (HIV-1)
[36] = molecular target: HIV-1 Env of ZM53.12 (HIV-1)
[37] = molecular target: HIV-1 Env of 191821.E6.1 (HIV-1)
[38] = molecular target: HIV-1 Env of QH0692.42 (HIV-1)
[39] = molecular target: HIV-1 Env of DU422.01 (HIV-1)
[40] = molecular target: HIV-1 Env of CAP244.D3 (HIV-1)
[41] = molecular target: HIV-1 Env of RHPA.7 (HIV-1)
[42] = molecular target: HIV-1 Env of Q168.a2 (HIV-1)
[43] = molecular target: HIV-1 Env of Q842.d12 (HIV-1)
[44] = molecular target: HIV-1 Env of Q23.17 (HIV-1)
[45] = molecular target: HIV-1 Env of DU156.12 (HIV-1)
[46] = molecular target: HIV-1 Env of KER2018.11 (HIV-1)
[47] = molecular target: HIV-1 Env of 6405.v4.c34 (HIV-1)

Measured: neutralization IC50

B1: CAP256-VRC26.07 (antibody, V domains shown)
VH: EVQLVESGGGVVQPGRSLRLSCVGSQFSFNRYGMHWVRQAPGKGLEWVAGISFDGTDRYHADNVWGRFTISRDNSKNTLYLQMSSLRAEDTALYYCAKDLREDECEEWWSDYYDFGKKLPCRKSRGVAGVFDKWGQGTMVTVSS
VL: QAVLTQPPSVSAAPGQNVTISCSGSGSNIGNNFVSWYQQRPGTAPKLLIYESNKRPSGIPDRFSGSKSGTSATLAITGLQTGDEAYYYCATWAARLNSARVFGTGTMVTVLG
40.1 µg/mL: [33]
0.008 µg/mL: [30]
0.014 µg/mL: [36]
42.5 µg/mL: [17]
44.1 µg/mL: [27]
0.021 µg/mL: [29]
3.1 µg/mL: [46]
> 50 µg/mL: all other assays above
